Measurements as given in patent publication US20250129150A1.

Target: recombinant human C1q (human) (UniProt P02745)
Assay: SPR, antibody captured on anti-kappa chip, C1q as analyte; signal relative to rituximab

Sequence of Lebrikizumab (Construct 1) (antibody; other documents disagree on this pair) (heavy): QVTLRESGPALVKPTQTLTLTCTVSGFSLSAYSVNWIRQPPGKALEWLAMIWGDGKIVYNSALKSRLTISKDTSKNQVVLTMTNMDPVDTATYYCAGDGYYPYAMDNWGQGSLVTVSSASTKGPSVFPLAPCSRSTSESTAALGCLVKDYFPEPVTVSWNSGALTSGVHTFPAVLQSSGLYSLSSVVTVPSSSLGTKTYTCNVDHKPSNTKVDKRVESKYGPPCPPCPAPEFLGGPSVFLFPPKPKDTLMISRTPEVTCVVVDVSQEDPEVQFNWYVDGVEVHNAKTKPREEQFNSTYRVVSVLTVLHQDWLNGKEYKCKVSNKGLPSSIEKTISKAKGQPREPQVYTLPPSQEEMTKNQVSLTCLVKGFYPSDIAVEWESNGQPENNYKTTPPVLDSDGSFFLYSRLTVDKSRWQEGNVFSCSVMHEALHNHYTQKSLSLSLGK
Sequence of Lebrikizumab (Construct 1) (antibody; other documents disagree on this pair) (light): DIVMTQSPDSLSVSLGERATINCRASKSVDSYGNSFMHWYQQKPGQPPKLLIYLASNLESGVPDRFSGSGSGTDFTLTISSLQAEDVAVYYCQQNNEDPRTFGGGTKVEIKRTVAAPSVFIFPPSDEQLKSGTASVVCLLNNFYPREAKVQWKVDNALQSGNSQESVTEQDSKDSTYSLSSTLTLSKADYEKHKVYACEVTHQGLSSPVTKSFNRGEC
Sequence of recombinant human C1q (human) (P02745 23-245 limits assumed, chain 1 of 3): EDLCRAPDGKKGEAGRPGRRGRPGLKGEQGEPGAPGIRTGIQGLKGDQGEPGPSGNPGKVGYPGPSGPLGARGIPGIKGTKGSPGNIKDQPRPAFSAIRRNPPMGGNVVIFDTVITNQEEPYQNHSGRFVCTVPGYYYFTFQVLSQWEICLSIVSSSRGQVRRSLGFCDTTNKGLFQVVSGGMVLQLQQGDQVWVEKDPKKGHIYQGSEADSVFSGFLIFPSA
Sequence of recombinant human C1q (human) (P02746 28-253 limits assumed, chain 2 of 3, further chain): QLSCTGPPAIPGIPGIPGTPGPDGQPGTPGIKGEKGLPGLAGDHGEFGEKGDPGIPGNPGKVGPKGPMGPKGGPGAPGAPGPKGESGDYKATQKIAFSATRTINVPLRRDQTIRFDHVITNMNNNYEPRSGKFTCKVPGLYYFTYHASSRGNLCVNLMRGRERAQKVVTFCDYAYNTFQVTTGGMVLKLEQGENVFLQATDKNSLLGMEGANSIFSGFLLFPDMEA
Sequence of recombinant human C1q (human) (P02747 29-245 limits assumed, chain 3 of 3, further chain): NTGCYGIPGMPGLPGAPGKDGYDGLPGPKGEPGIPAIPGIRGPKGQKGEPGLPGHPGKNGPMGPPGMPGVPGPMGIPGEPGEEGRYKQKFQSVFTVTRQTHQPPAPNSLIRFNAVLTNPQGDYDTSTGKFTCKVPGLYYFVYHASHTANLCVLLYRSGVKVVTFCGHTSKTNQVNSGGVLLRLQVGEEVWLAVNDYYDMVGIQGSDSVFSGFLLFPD

C1q (Signal Relative to Rituximab): 39.6%
Substance: Lebrikizumab (Construct 1) (antibody; other documents disagree on this pair)
